This series concerns the molecule itself. Description: native MS; 200 mM ammonium acetate, 0.062% C10E5, nanoelectrospray, Orbitrap EMR, room temperature; sample expressed with kifunensine and treated with EndoH.

B1: TREK2^N84Q (TREK2 residues 55-335, T58A, N144Q, C-terminal StrepTag-II) (domain or fragment, UniProt P57789-1 55-335, looked up)
chain: MEGASQGGLQTVMKWKTVVAIFVVVVVYLVTGGLVFRALEQPFESSQKNTIALEKAEFLRDHVCVSPQELETLIQHALDADNAGVSPIGQSSNNSSHWDLGSAFFFAGTVITTIGYGNIAPSTEGGKIFCILYAIFGIPLFGFLLAGIGDQLGTIFGKSIARVEKVFRKKQVSQTKIRVISTILFILAGCIVFVTIPAVIFKYIEGWTALESIYFVVVTLTTVGFGDFVAGGNAGINYREWYKPLVWFWILVGLAYFAAVLSMIGDWLRVLSKKTKEEVGE
modifications: remaining inner core GlcNAc on Asn after EndoH cleavage; potential modifications of the glycan
notes: TREK2, two-pore domain potassium channel, UniProt P57789-1, residues 55-335 with T58A; The text introduces the mutant as N144Q and then calls it TREK2^N84Q; The Addgene plasmid is named for the parent construct with T58A; also called TREK2 N144Q
For the protein B1, the “stoichiometry N” value was 2.

One may read the stoichiometry N as a count of units in the complex or per binding partner.

The record behind these values is publication PMC11228984, “TREK2 Lipid Binding Preferences Revealed by Native Mass Spectrometry” (Journal of the American Society for Mass Spectrometry, 2024).
